Assay results published in patent US20170129954A1 (PROTHENA BIOSCIENCES, published 2017).

How the values were obtained:
[1] = target: T1, human MCAM domain 1 (amino acids 19-129) hFc (human, UniProt P43121 19-129); test: ForteBio BLI, MCAMhFc domains on anti-human IgG Fc biosensors
T1 construct: One of the various MCAMhFc domains captured on anti-human IgG Fc biosensors; also called MCAMhFc domain; not shown: human IgG Fc (hFc)
T1 sequence: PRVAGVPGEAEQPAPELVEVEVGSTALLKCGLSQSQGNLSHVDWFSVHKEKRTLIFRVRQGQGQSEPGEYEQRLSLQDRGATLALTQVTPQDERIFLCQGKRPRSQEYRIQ
Description: (§1) The following protocol was used: ForteBio anti-human IgG Fc biosensors were used to immobilize various MCAMhFc domains including full length MCAMhFc protein on to biosensor surface. […] After loading these samples into a black 96 well plate, the Octet Red was programmed as follows: 60 seconds for baseline #1; 180 seconds for loading various domains; 60 seconds for baseline #2; 180 seconds for association of antibody to domain; and 240 seconds for dissociation of antibody from domain.
(§2) 1. MCAMhFc final concentration @ 5 ug/ml [0329] […] 3. ForteBio anti-human IgG Fc Capture (AHC) biosensors for kinetics experiments, cat #18-5060 [0331] 4. Block 96 well plate from Greiner Bio-one, cat #655209 [0332] 5. ForteBio Octet Red machine [0333] 6. Fresh tissue culture medium, DMEM with 20% FCS, was used as buffer for dilution The results from these analyses are as follows.

[2] = target: T2, human MCAM domain 2 (amino acids 139-242) hFc (human, UniProt P43121 139-242); test: as above
T2 construct: One of the various MCAMhFc domains captured on anti-human IgG Fc biosensors; also called MCAMhFc domain; not shown: human IgG Fc (hFc)
T2 sequence: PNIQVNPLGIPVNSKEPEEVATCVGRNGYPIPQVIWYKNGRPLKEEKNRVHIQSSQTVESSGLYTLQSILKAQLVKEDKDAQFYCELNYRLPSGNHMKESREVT
Description: as §1, §2

[3] = target: T3, combination of human MCAM domains 1 and 2 (amino acids 19-242) hFc (human, UniProt P43121 19-242); test: as above
T3 construct: One of the various MCAMhFc domains captured on anti-human IgG Fc biosensors; also called combination of domains 1 and 2; MCAMhFc domain; not shown: human IgG Fc (hFc)
T3 sequence: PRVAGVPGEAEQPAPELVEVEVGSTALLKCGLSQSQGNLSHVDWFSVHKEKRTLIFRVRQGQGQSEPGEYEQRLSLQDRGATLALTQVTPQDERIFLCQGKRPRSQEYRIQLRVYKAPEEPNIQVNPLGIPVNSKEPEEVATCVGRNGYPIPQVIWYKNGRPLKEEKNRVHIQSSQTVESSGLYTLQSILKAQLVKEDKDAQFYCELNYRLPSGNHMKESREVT
Description: as §1, §2

[4] = target: T4, human MCAM Y318A mutant (shotgun mutagenesis library, on BHK cells) (human, UniProt P43121 24-646); test: shotgun mutagenesis library, immunofluorescence on BHK cells, 0.5 µg/mL antibody
T4 chain: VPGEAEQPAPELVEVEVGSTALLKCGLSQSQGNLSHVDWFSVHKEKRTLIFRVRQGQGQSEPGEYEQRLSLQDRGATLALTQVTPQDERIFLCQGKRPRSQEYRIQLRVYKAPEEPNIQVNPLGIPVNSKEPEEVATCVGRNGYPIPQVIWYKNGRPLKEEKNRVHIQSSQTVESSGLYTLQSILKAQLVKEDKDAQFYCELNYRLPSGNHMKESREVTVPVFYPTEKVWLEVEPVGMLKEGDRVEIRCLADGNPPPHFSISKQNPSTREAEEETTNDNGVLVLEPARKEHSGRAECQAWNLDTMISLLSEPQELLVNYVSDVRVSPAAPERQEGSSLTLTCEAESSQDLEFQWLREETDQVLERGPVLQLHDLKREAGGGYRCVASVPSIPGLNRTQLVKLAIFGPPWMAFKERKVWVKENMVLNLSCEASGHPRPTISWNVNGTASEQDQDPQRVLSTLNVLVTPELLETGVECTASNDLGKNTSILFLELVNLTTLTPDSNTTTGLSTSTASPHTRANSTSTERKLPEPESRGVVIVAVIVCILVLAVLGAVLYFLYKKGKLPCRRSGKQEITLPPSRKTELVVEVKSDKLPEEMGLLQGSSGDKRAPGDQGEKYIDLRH
Procedure: (§3) Secondary antibodies from Jackson ImmunoResearch were used at 1:400 for MAb and sera detection.
(§4) The mutation library was assayed for surface expression (mouse sera binding) and monoclonal antibody binding, in triplicate. Each raw data point was background-subtracted and normalized to the wild type MCAM reactivity values. The mean monoclonal antibody binding value for each clone is plotted as a function of its mean surface expression value (FIG. 1, gray diamonds). Thresholds of <30% monoclonal antibody reactivity and >50% mouse sera binding were applied to identify clones (FIG. 1, black diamonds) that were negative for monoclonal antibody binding but positive for surface expression.

[5] = target: T5, human MCAM C320A mutant (shotgun mutagenesis library, on BHK cells) (human, UniProt P43121 24-646); test: as above
T5 chain: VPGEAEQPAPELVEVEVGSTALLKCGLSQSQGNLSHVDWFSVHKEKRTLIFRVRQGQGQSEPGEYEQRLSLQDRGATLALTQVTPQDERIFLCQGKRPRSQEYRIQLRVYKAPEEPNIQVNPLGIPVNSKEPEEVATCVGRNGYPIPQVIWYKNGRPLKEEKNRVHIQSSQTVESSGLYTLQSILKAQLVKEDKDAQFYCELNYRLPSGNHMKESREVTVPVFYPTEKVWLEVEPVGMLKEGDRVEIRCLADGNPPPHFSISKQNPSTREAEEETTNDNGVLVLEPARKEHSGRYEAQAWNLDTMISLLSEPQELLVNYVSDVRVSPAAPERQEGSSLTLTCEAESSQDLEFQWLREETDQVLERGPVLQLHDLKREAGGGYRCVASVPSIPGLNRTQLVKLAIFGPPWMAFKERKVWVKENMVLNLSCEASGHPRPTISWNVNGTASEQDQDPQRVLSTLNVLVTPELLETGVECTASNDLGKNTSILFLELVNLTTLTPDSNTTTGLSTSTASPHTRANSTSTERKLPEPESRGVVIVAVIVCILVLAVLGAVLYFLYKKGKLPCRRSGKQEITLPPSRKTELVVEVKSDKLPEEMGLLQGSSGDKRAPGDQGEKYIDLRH
Procedure: as §3, §4

binding result [1]: no binding (tested: 5 ug/ml)
binding result [2]: no binding (tested: 5 ug/ml)
binding result [3]: no binding (tested: 5 ug/ml)
B1: mouse anti-human MCAM monoclonal antibody clone 1749.1.3 (antibody, V domains shown)
VH: DVKLVESGGDLVKPGGSLKLSCAASGFTFSSYIMSWVRQTPEKRLEWVATISSGGSSTYYPDSVKGRFTISRDNAKNTLYLQMSSLKSEDTAMYYCTRDDDYDVKVFAYWGQGTLVTVSA
VL: DIVMSQSPSSLAVSAGEKVTMNCKSSRSLLNSRIRKNYLAWYQQKPGQSPKLLIYWASTRESGVPDRFTGSGSGTDFTLTISSVQAEDLAVYYCKQSYNLLTFGAGTKLELK
notes: Mouse hybridoma monoclonal antibody; also called m1749
binding result [4]: no binding (tested: <30% WT)
binding result [5]: no binding (tested: <30% WT)
